Test results taken from patent US20260000736A1, “PURIFIED LACTOFERRIN COMPOSITIONS AND METHODS OF USE” (Lactea Therapeutics LLC, priority 2023, published 2026).
Entries after “also recorded” stand apart in the source; their conditions may differ.

What was measured:
lactoperoxidase (LPO) = test: Enzymatic colorimetric assay for lactoperoxidase (LPO) activity; format: biochemical; conditions: colorimetric peroxidase substrate
From the text: An enzymatic assay for lactoperoxidase (LPO) activity was developed utilizing a molecule which in the presence of peroxidase activity turns a blue color.

E. coli 0157 [1] = test: Bacterial growth inhibition, OD600 after 16 h; format: cell-based; conditions: 1 mg/mL Lf, 16 h at 37° C.
Method: As an analytical standard for the assessment of Lactoferrin (Lf) activity, 1 mg/mL Lf was added to 10∝CFU/mL E. coli 0157 in LB and incubated for 16 h at 37° C. Lactea Lactoferrin (Lactea-Lf) was produced as described in the above examples. Assessed were three independent lots of Lactea-Lf, impure samples which were generated by co-eluting Lactoperoxidase and Lactoferrin (co-elution), samples with degradation products generated by eluting Lactoferrin from old milk which was left for three days (Degradation Products), and a Sigma Aldrich Lactoferrin L9507 (Research Standard). As shown in FIG. 16 and quantified in Table 5, in the Lactea-Lf lots assessed, less than 5% the total growth of bacteria was observed as assessed by OD600 relative to the growth of untreated bacteria under these conditions. In this case, co-elution samples were samples which have a detectable peak of LPO as observable in MALDI-TOF M/S or HPLC. Degradation Products had identifiable degradation peaks as observed in HPLC or DSC.

E. coli 0157 [2] = test: Bacterial growth timecourse, OD600; format: cell-based; conditions: 1 mg/mL; for Bacterial Growth Timecourse, Replicate 1 / Bacterial Growth Timecourse, Replicate 2 / Bacterial Growth Timecourse, Replicate 3: OD600 relative to no treatment control at 24 hours
Method: For a more detailed comparison of Lactea-Lf antimicrobial activity relative to the Sigma Aldrich Lactoferrin, Lactea-Lf and Sigma Aldrich Lactoferrin were incubated at 1 mg/mL with for E. coli 0157 in LB seeded at 10∝CFU/mL. […] Results were quantified and reported as a percent of the OD600 of the no treatment control at 24 hours for all timepoints.

E. coli 0157 [3] = test: Biofilm formation, crystal violet assay; format: cell-based; conditions: for Biofilm Inhibition, Replicate 1 / Biofilm Inhibition, Replicate 2 / Biofilm Inhibition, Replicate 3: 24 hours
Method: Lactoferrin was assessed for biofilm growth inhibition. To study the relative concentration dependent efficacy of Lactea-Lf and the Sigma Aldrich research standard Lactoferrin in inhibiting biofilm formation, Lf was added at concentrations ranging from 2 mg/mL to 0.31 mg/mL (2-fold serial dilution curve) to E. coli 0157 in LB seeded at 10∝CFU/mL and incubated for 37° C. for 24 hours. Lactea Lactoferrin (Lactea-Lf) was produced as described in the above examples. The biofilm was stained using a standard crystal violet assay. A quantification of the inhibition of biofilm formation (FIG. 18A) and an image of a representative plate (FIG. 18B) are shown.

[4] = DSC of additional batches, ratio of apo to holo-Lactoferrin; format: physicochemical; conditions: 5 mg/mL, 30° C. to 100° C. range
Method: Additional batches of Lactea-Lf as described in the above examples and the relative ratio of apo to holo-Lactoferrin was assessed by Differential Scanning Calorimetry (DSC). Lactoferrin samples were loaded at 5 mg/mL into a NanoDSC (TI Instruments) and measured in the 30° C. to 100° C. range. […] It is likely that these peaks are smaller as the sample is highly impure or contains already denatured product.

SARS-CoV-2 = SARS-CoV-2 Cytopathic Effect (CPE) reduction assay in Vero E6 cells; format: cell-based; conditions: Vero E6 cells, MOI of 0.001, neutral red, three days post-infection
[5] = 10∝CFU/mL E. coli 0157 in LB, OD600 relative to untreated

B1: Sigma-Lf: Sigma Aldrich Lactoferrin L9507 (Research Standard) (protein, UniProt P24627 20-708, looked up)
Lactotransferrin: APRKNVRWCTISQPEWFKCRRWQWRMKKLGAPSITCVRRAFALECIRAIAEKKADAVTLDGGMVFEAGRDPYKLRPVAAEIYGTKESPQTHYYAVAVVKKGSNFQLDQLQGRKSCHTGLGRSAGWIIPMGILRPYLSWTESLEPLQGAVAKFFSASCVPCIDRQAYPNLCQLCKGEGENQCACSSREPYFGYSGAFKCLQDGAGDVAFVKETTVFENLPEKADRDQYELLCLNNSRAPVDAFKECHLAQVPSHAVVARSVDGKEDLIWKLLSKAQEKFGKNKSRSFQLFGSPPGQRDLLFKDSALGFLRIPSKVDSALYLGSRYLTTLKNLRETAEEVKARYTRVVWCAVGPEEQKKCQQWSQQSGQNVTCATASTTDDCIVLVLKGEADALNLDGGYIYTAGKCGLVPVLAENRKSSKHSSLDCVLRPTEGYLAVAVVKKANEGLTWNSLKDKKSCHTAVDRTAGWNIPMGLIVNQTGSCAFDEFFSQSCAPGADPKSRLCALCAGDDQGLDKCVPNSKEKYYGYTGAFRCLAEDVGDVAFVKNDTVWENTNGESTADWAKNLNREDFRLLCLDGTRKPVTEAQSCHLAVAPNHAVVSRSDRAAHVKQVLLHQQALFGKNGKNCPDKFCLFKSETKNLLFNDNTECLAKLGGRPTYEEYLGTEYVTAIANLKKCSTSPLLEACAFLTR
LPO enzymatic activity (blue color reaction) (lactoperoxidase (LPO)): does not result in a positive enzymatic reaction
Relative Bacterial Growth, Replicate 1 (E. coli 0157 [1]; [5]): 0.8089
Relative Bacterial Growth, Replicate 2 (E. coli 0157 [1]; [5]): 0.8162
Relative Bacterial Growth, Replicate 3 (E. coli 0157 [1]; [5]): 0.7726
antibacterial activity compared with other samples (E. coli 0157 [1]): less activity than any lot of co-elution or degraded product
time at which bacterial growth became observable / evident (E. coli 0157 [2]; E. coli 0157 in LB): 6 h
Bacterial Growth Timecourse, Replicate 1 (E. coli 0157 [2]; 3 h): 0.04197
Bacterial Growth Timecourse, Replicate 2 (E. coli 0157 [2]; 3 h): 0.0345
Bacterial Growth Timecourse, Replicate 3 (E. coli 0157 [2]; 3 h): 0.04414
Bacterial Growth Timecourse, Replicate 1 (E. coli 0157 [2]; 6 h): 0.6058
Bacterial Growth Timecourse, Replicate 2 (E. coli 0157 [2]; 6 h): 0.6264
Bacterial Growth Timecourse, Replicate 3 (E. coli 0157 [2]; 6 h): 0.6363
Bacterial Growth Timecourse, Replicate 1 (E. coli 0157 [2]; 9 h): 0.6012
Bacterial Growth Timecourse, Replicate 2 (E. coli 0157 [2]; 9 h): 0.6124
Bacterial Growth Timecourse, Replicate 3 (E. coli 0157 [2]; 9 h): 0.6341
Bacterial Growth Timecourse, Replicate 1 (E. coli 0157 [2]; 12 h): 0.6658
Bacterial Growth Timecourse, Replicate 2 (E. coli 0157 [2]; 12 h): 0.6702
Bacterial Growth Timecourse, Replicate 3 (E. coli 0157 [2]; 12 h): 0.6326
Bacterial Growth Timecourse, Replicate 1 (E. coli 0157 [2]; 15 h): 0.6543
Bacterial Growth Timecourse, Replicate 2 (E. coli 0157 [2]; 15 h): 0.6602
Bacterial Growth Timecourse, Replicate 3 (E. coli 0157 [2]; 15 h): 0.6251
Bacterial Growth Timecourse, Replicate 1 (E. coli 0157 [2]; 18 h): 0.6295
Bacterial Growth Timecourse, Replicate 2 (E. coli 0157 [2]; 18 h): 0.6201
Bacterial Growth Timecourse, Replicate 3 (E. coli 0157 [2]; 18 h): 0.599
Bacterial Growth Timecourse, Replicate 1 (E. coli 0157 [2]; 21 h): 0.6512
Bacterial Growth Timecourse, Replicate 2 (E. coli 0157 [2]; 21 h): 0.5981
Bacterial Growth Timecourse, Replicate 3 (E. coli 0157 [2]; 21 h): 0.5984
Bacterial Growth Timecourse, Replicate 1 (E. coli 0157 [2]; 24 h): 0.6668
Bacterial Growth Timecourse, Replicate 2 (E. coli 0157 [2]; 24 h): 0.6205
Bacterial Growth Timecourse, Replicate 3 (E. coli 0157 [2]; 24 h): 0.6407
inhibition of biofilm formation, in words (E. coli 0157 [3]; E. coli 0157, 24 hours): only appears to demonstrate inhibition of biofilm in the low mg/mL range, but never completely eliminates biofilm formation
Biofilm Inhibition, Replicate 1 (E. coli 0157 [3]; [Lf] 0.031 mg/mL): 0.6588
Biofilm Inhibition, Replicate 2 (E. coli 0157 [3]; [Lf] 0.031 mg/mL): 0.9283
Biofilm Inhibition, Replicate 3 (E. coli 0157 [3]; [Lf] 0.031 mg/mL): 0.854
Biofilm Inhibition, Replicate 1 (E. coli 0157 [3]; [Lf] 0.063 mg/mL): 0.2439
Biofilm Inhibition, Replicate 2 (E. coli 0157 [3]; [Lf] 0.063 mg/mL): 0.1943
Biofilm Inhibition, Replicate 3 (E. coli 0157 [3]; [Lf] 0.063 mg/mL): 0.3058
Biofilm Inhibition, Replicate 1 (E. coli 0157 [3]; [Lf] 0.125 mg/mL): 0.1583
Biofilm Inhibition, Replicate 2 (E. coli 0157 [3]; [Lf] 0.125 mg/mL): 0.1464
Biofilm Inhibition, Replicate 3 (E. coli 0157 [3]; [Lf] 0.125 mg/mL): 0.5378
Biofilm Inhibition, Replicate 1 (E. coli 0157 [3]; [Lf] 0.25 mg/mL): 0.1929
Biofilm Inhibition, Replicate 2 (E. coli 0157 [3]; [Lf] 0.25 mg/mL): 0.2837
Biofilm Inhibition, Replicate 3 (E. coli 0157 [3]; [Lf] 0.25 mg/mL): 0.358
Biofilm Inhibition, Replicate 1 (E. coli 0157 [3]; [Lf] 0.5 mg/mL): 0.126
Biofilm Inhibition, Replicate 2 (E. coli 0157 [3]; [Lf] 0.5 mg/mL): 0.192
Biofilm Inhibition, Replicate 3 (E. coli 0157 [3]; [Lf] 0.5 mg/mL): 0.1942
Biofilm Inhibition, Replicate 1 (E. coli 0157 [3]; [Lf] 1 mg/mL): 0.05367
Biofilm Inhibition, Replicate 2 (E. coli 0157 [3]; [Lf] 1 mg/mL): 0.09846
Biofilm Inhibition, Replicate 3 (E. coli 0157 [3]; [Lf] 1 mg/mL): 0.1465
Biofilm Inhibition, Replicate 1 (E. coli 0157 [3]; [Lf] 2 mg/mL): 0.09652
Biofilm Inhibition, Replicate 2 (E. coli 0157 [3]; [Lf] 2 mg/mL): 0.03678
Biofilm Inhibition, Replicate 3 (E. coli 0157 [3]; [Lf] 2 mg/mL): 0.08427
relative ratio of apo to holo-Lactoferrin, DSC peak pattern [4]: one lot was almost entirely holo-Lf and had two peaks in the holo-Lf range; also recorded: two faint peaks with slightly more holo-Lf than apo-Lf

B2: Lactoferrin (“Reagent”): reagent grade Lactoferrin, comparable research grade reference product (protein, UniProt P24627 20-708, looked up)
Lactotransferrin: B1 Lactotransferrin
EC50 (SARS-CoV-2): 140 nM
